Measurements published in US20240197906A1, “ANTI-cMET ANTIBODY DRUG CONJUGATES AND [sequence] USES THEREOF” (Mythic Therapeutics, Inc., priority 2022, published 2024).
Entries after “also recorded” stand apart in the source; their conditions may differ. Non-standard residues stand in square brackets, D forms with d. Residues, ends and D or L forms follow the SMILES beside them. *: point of attachment. Dolaproine = CO[C@@H]([C@@H]1CCCN1)[C@@H](C)C(=O)O; Dil = CC[C@H](C)[C@H](NC)[C@@H](CC(=O)O)OC; X1 = C[C@@H](N*)[C@@H](O)c1ccccc1; NMeV = CN[C@H](C(=O)O)C(C)C

Tests used:
[1] = tested on: EBC-1 cells; test: Cell cycle arrest assay; assay type: cell-based, human; settings: 10 nM, 24 hours
Protocol: Cell Cycle Arrest Assay. Briefly, EBC-1 cells were cultured in standard culture media (Eagle's minimum essential medium+10% fetal bovine serum) and conditions recommended by the vendor. Cells were plated at a density of 2×10^4 cells per well and incubated at 37° C. for 24 hours. […] Plates were incubated for 24 hours at 37° C. At the end of the culture period, test articles were removed from the plate. Cells were trypsinized, washed, and fixed in 70% ethanol for 30 minutes. Cells were washed, stained with propidium iodide staining using a cell cycle analysis kit (Abcam), and assessed by flow cytometry.

[2] = tested on: NCI-H441 cells; test: Cell proliferation assay (CellTiter-Glo); assay type: cell-based, human; settings: 10 nM, 4 days, serum starved
[3] = tested on: phosphorylation of ERK1/2 and Akt1 in NCI-H441 cells; test: Cell signaling assay (ELISA); assay type: cell-based, human; settings: 10 μg/mL, 30 minutes
Protocol: Cell Signaling Assay. Briefly: NCI-H441 cells were cultured in standard culture media (RPMI-1640 Medium+10% fetal bovine serum) using conditions recommended by the vendor. For the cell signaling assay, NCI-H441 cells were seeded in 6-well plates at 300,000 cells per well in culture media. The next day, the cells were washed with serum-free medium twice and then replenished with 3 mL RPMI+0.2% fetal bovine serum.
The following day, cells were treated with 50 ng/ml HGF or 10 μg/mL of test articles and incubated for 30 minutes at 37° C. Following the 30-minute stimulation, the treatment medium was aspirated, the cells were washed 2 times in an excess volume of ice-cold phosphate buffered saline and collected by cell scraping on ice in 250 μL ice-cold lysis buffer per well and transferred to pre-chilled tubes. […] Lysates were thawed on ice for 1 hour with occasional vortexing, and protein concentrations were measured using the BCA protein assay according to the manufacturer's instructions. Lysates were diluted in lysis buffer to final concentration 0.5 mg/mL, and 100 μL of each sample was assessed using commercially available ELISA kits to detect total ERK1/2 and Akt1 and their phosphorylated forms. ELISAs were performed and analyzed according to the manufacturer's instructions. […]

[4] = tested on: EBC-1 cells; test: ADCC effector function with PBMCs; assay type: cell-based, human; settings: PBMCs from all donors, vs IgG1 isotype control
[5] = tested on: EBC-1 cells; test: ADCP effector function; assay type: cell-based, human; settings: vs IgG1 isotype control
[6] = tested on: EBC-1 cells; test: Complement dependent cytotoxic assay; assay type: cell-based; settings: 30% human complement
Protocol: Complement Dependent Cytotoxic Assay. EBC-1 cells were incubated with serially diluted test articles: Q397-noV205C or non-binding antibody. For the technical control, Raji cells, which expresses CD20 on the cell surface, were incubated with serially diluted test articles: anti-CD20 (research grade recombinant anti-CD20 rituximab, catalog number A2009) or non-binding antibody (human IgG1 isotype control antibody, catalog number BE0297). Briefly, EBC-1 and Raji cells were added to a 96-well U-bottom plate at a density of 2.5×10^4 cells/well. Serially diluted test articles were added to the plate. The starting concentration of all test articles was 100 nM. A 3-fold dilution was performed for 9 concentration points and added to the test plate in duplicates. The plate was then incubated for 30 minutes at 37° C. At the end of the culture period, either heat inactivated or pooled human complement sera at a final concentration of 30% diluted in culture media (RPMI) was added to the plate. The plate was then incubated at 37 °C for two hours and cell lysis was assessed using CellTiter-Glo.

[7] = target: human cMET on cMET+ human cancer cells (human, UniProt P08581 25-1390); test: cell-based or functional assay
[8] = target: mouse cMET (mouse, UniProt P16056 25-931, limits assumed); test: ELISA or BLI (the filing does not say which)
[9] = target: rat cMET (rat, UniProt P97523 25-935, limits assumed); test: ELISA or BLI (the filing does not say which)
[10] = target: recombinant cynomolgus monkey cMET (cynomolgus monkey, UniProt A0A2K5UM36 25-932); test: BLI (Octet), antibody captured on AHC sensor, recombinant cynomolgus monkey cMET as analyte, pH 7.4
[11] = target: recombinant human cMET (human, UniProt P08581 25-932, limits assumed); test: BLI (Octet), antibody captured on AHC sensor, recombinant human cMET as analyte, pH 7.4; BLI, recombinant human cMET as analyte, pH 7.4
Chain of recombinant human cMET (P08581 25-932 limits assumed): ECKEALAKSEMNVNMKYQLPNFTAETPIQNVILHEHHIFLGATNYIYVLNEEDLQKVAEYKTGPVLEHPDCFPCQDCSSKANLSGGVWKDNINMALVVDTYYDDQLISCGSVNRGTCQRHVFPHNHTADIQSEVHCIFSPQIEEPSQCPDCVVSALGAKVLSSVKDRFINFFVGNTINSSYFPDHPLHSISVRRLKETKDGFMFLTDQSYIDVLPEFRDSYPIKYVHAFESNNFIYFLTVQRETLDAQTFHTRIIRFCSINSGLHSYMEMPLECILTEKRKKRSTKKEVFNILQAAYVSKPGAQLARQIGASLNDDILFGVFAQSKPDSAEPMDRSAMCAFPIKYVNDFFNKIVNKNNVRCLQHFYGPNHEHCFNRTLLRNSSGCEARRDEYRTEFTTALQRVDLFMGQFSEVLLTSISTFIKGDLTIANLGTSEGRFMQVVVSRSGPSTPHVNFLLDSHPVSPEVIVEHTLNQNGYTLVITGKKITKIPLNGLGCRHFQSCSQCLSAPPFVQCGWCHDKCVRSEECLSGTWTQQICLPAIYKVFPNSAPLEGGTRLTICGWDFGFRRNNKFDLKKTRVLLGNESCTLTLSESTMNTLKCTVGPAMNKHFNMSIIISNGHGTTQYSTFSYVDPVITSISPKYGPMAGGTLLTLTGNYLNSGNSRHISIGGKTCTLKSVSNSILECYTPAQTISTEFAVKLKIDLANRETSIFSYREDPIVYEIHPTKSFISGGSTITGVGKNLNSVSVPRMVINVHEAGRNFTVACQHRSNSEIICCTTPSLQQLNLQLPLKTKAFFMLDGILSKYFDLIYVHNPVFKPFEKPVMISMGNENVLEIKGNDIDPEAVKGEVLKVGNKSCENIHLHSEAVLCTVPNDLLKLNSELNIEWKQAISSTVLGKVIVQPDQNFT

Chain of rat cMET (P97523 25-935 limits assumed): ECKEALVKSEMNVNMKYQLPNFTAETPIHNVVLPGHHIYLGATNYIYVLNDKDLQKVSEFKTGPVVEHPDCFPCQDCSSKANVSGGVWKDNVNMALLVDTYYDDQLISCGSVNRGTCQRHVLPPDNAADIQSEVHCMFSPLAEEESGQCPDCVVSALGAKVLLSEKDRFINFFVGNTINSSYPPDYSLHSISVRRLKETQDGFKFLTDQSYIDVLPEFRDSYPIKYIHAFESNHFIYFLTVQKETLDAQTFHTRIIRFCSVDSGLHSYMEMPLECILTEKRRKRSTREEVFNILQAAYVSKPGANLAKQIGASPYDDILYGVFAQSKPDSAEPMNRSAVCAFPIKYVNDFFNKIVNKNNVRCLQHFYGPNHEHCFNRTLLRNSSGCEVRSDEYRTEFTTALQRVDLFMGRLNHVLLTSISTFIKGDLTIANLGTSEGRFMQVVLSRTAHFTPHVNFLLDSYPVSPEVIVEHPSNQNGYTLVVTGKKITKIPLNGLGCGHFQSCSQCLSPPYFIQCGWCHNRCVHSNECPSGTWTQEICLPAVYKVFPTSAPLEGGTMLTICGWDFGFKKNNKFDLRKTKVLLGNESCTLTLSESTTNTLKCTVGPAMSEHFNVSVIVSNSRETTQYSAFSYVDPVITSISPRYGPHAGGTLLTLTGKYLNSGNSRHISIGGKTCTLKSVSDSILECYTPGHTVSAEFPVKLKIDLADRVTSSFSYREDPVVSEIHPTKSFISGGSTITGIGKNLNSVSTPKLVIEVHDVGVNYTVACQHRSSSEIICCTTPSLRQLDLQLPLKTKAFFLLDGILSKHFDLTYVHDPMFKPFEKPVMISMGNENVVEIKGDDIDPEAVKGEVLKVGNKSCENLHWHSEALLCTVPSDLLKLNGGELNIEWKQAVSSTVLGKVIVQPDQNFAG
Chain of mouse cMET (P16056 25-931 limits assumed): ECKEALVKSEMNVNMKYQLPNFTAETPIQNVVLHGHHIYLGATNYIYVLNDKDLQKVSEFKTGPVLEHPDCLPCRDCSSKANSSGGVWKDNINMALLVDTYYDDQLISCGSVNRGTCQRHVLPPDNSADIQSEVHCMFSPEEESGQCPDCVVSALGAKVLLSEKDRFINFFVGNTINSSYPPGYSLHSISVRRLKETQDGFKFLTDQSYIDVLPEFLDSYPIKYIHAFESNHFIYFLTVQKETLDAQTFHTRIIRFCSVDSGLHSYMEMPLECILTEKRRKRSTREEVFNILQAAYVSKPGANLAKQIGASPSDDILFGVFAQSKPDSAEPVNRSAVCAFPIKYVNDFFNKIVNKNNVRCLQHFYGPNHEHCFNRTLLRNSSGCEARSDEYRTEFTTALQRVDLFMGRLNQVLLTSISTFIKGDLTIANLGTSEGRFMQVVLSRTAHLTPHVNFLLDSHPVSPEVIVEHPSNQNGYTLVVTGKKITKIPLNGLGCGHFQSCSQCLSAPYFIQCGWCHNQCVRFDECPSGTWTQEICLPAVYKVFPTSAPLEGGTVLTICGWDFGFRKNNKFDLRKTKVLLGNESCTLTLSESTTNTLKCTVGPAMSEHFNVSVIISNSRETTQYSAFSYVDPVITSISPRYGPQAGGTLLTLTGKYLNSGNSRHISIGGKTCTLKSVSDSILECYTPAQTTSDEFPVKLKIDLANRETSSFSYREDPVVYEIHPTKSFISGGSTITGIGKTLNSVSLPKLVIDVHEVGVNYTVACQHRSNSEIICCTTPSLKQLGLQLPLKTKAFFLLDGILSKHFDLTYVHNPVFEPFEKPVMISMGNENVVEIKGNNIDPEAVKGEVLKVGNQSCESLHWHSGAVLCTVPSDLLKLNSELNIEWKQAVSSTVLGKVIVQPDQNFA
Chain of human cMET on cMET+ human cancer cells (P08581 25-1390): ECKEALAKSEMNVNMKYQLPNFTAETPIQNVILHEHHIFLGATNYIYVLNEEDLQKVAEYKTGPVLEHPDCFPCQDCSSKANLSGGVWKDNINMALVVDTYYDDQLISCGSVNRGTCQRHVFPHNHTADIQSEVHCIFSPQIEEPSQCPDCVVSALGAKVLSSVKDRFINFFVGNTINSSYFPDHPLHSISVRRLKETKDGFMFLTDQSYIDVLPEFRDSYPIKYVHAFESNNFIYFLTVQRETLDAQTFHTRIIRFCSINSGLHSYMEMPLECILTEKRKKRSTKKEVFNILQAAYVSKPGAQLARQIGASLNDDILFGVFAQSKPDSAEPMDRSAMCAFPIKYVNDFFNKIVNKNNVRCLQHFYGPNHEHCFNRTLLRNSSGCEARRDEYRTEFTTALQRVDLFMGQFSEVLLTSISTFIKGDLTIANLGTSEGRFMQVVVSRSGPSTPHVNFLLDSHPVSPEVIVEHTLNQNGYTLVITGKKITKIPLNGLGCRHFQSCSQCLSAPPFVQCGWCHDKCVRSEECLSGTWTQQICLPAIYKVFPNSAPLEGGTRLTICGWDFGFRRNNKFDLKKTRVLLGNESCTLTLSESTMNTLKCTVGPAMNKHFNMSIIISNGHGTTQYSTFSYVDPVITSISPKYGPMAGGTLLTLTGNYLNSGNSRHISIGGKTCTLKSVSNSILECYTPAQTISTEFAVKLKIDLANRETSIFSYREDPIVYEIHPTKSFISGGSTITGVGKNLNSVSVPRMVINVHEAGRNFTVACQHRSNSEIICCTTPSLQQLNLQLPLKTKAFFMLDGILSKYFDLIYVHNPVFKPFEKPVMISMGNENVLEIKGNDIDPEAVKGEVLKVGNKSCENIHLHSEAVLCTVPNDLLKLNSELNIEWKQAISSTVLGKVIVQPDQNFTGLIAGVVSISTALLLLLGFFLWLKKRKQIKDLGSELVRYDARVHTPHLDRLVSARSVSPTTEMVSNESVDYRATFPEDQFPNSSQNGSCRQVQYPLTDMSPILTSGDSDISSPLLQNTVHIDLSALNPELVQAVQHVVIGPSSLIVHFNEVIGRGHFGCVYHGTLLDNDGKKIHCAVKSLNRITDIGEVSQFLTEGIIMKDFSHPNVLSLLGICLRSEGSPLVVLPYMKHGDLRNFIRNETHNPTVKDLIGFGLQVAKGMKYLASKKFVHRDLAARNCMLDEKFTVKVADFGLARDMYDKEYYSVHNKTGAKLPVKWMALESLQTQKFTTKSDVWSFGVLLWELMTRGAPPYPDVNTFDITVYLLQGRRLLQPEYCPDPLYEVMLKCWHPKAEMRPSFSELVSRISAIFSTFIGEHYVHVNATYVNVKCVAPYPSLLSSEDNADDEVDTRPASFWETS
Chain of recombinant cynomolgus monkey cMET (A0A2K5UM36 entry or part of it limits assumed): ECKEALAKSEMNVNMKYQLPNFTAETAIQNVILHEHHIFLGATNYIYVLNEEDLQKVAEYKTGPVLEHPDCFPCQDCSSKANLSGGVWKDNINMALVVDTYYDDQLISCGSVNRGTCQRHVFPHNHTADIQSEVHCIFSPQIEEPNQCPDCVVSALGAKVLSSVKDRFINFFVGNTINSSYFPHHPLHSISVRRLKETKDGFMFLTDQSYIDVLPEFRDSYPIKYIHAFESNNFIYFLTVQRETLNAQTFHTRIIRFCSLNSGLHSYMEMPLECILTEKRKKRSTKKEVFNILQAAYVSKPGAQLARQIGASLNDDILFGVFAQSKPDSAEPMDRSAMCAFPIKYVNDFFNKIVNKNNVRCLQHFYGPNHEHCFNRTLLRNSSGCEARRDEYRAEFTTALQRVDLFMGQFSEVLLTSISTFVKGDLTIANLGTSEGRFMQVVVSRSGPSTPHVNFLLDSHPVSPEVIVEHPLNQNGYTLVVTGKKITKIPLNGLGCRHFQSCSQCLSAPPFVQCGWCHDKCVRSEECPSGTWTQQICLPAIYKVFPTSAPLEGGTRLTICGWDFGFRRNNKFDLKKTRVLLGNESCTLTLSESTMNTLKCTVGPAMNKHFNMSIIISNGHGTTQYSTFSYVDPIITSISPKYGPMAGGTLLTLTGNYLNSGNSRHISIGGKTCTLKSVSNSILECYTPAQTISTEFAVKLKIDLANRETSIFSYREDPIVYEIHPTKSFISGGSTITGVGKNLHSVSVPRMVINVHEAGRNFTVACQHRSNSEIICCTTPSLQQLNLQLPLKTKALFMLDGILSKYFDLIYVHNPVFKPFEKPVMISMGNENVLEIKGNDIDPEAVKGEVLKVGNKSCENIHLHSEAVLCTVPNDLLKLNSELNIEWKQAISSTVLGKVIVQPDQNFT

`CC[C@H](C)[C@@H]([C@@H](CC(=O)N1CCC[C@H]1[C@H](OC)[C@@H](C)C(=O)N[C@H](C)[C@@H](O)c1ccccc1)OC)N(C)C(=O)[C@@H](NC(=O)[C@@H](NC)C(C)C)C(C)C` [MMAE, monomethyl auristatin E] (H-[NMeV]V[Dil][Dolaproine]-X1) was tested, and the “percentage of cells in G2-M phase” value [1] was 68.6%.

With “Q397-noV205C: Anti-cMET antibody of MYTX-011 without the V205C substitution; SEQ ID NO: 75 and SEQ ID NO: 81” the “proliferation of cMET+ NCI-H441 cells” value [2] was “did not increase”, the “phosphorylation of ERK1/2 or Akt1” value [3] was “minimal phosphorylation” and the ADCC activity [4] was “minimal to no; also recorded: Minimal ADCC activity”. For the same molecule, the ADCP activity [5] was “minimal to no; also recorded: no ADCP activity” and the “CDC activity (EBC-1 cell lysis)” value [6] was “minimal to no; also recorded: did not induce EBC-1 cell lysis”.

B1: MYTX-011 mAb (antibody, V domains shown)
VH: QVQLVQSGAEVKKPGASVKVSCKASGYTFTDYYMHWVRQAPGQGLEWMGRVNPNRRGTTYNQKFEGRVTMTTDTSTSTAYMELRSLRSDDTAVYYCARANWLDYWGQGTTVTVSS
VL: DIQMTQSPSSLSASVGDRVTITCSVSSSVSSIHLHWYQQKPGKAPKLLIYHTSNLASGVPSRFSGSGSGTDFTLTISSLQPEDFATYYCQVYSGYPLTFGGGTKVEIKR
notes: also called Q397
B1 was tested, and the “uptake of pHrodo-conjugated mAb in NCI-H1975 cells by live cell imaging, at 24 hours, over the parent mAb” value [7] was 3 fold, the binding result [8] was “no binding” and the binding result [9] was “no binding”. The Kd [10] was 9.44 nM and the Kd [11] was 4 nM.

B2: MYTX-011 (antibody, IgG1, V domains shown)
VH: QVQLVQSGAEVKKPGASVKVSCKASGYTFTDYYMHWVRQAPGQGLEWMGRVNPNRRGTTYNQKFEGRVTMTTDTSTSTAYMELRSLRSDDTAVYYCARANWLDYWGQGTTVTVSS
VL: DIQMTQSPSSLSASVGDRVTITCSVSSSVSSIHLHWYQQKPGKAPKLLIYHTSNLASGVPSRFSGSGSGTDFTLTISSLQPEDFATYYCQVYSGYPLTFGGGTKVEIKR
modifications: vcMMAE (mc-vc-PAB-MMAE) linked to the engineered cysteine at position 98 of the light chain constant domain ("V205C"); DAR 2
notes: Antibody drug conjugate: humanized triple hinge IgG1 kappa antibody Q397 conjugated site-specifically to vcMMAE, drug to antibody ratio 2; also called anti-cMET pH-ADC; pH-ADC
B2: no binding [8]; no binding [9].
